Here are results for 55 molecules from US20200292534A1.

T1: NLpoly11S
T1 chain: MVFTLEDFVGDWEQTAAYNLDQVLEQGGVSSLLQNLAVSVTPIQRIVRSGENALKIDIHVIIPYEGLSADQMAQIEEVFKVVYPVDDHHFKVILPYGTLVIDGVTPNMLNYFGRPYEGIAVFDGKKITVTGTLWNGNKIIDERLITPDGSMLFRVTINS

The target of one assay is T1, NLpoly11S. As to the kind of experiment: luminescence complementation titration, one-site specific binding fit.
Details: not given
Consider VTGYRLFQQEL (modifications not checked) [array2.42], for which the Bmax was determined as 14200 and the Kd – broadly, the equilibrium constant for the complex coming apart – was 19 µM.

Take VEGYRLFEQAL (modifications not checked) [array2.104]: the Bmax is 9880 and the Kd was determined as 336 µM.

The molecule VTGYRLFQKES (modifications not checked) [array2.12] registered a Bmax of 17200 and an equilibrium dissociation constant (Kd) of 0.417 µM.

Regarding VTGYRLFEKIL (modifications not checked) [array2.46], the Bmax worked out at 219000 and the Kd was 1.92 µM.

In the case of VTGYRLFQQAL (modifications not checked) [array2.41], the Bmax came out at 3470 and the dissociation constant Kd amounted to 3.97 µM.

Molecule VTGYRLFQEIL (modifications not checked) [array2.43] registered a Bmax of 9410 and a Kd of 17.2 µM.

Take VTGYRLFKQIS (modifications not checked) [array2.4]: the Bmax turned out to be 104000 and the Kd amounted to 0.746 µM.

VTGYRLFEQAL (modifications not checked) [array2.50] had a Bmax of 17100 and an equilibrium dissociation constant (Kd) of 40.4 µM.

VTGYRLFKKIL (modifications not checked) [array2.28] registered a Bmax of 141000 and a Kd of 0.0766 µM.

VEGYRLFEKAL (modifications not checked) [array2.101] yielded a Bmax of 6370 and an equilibrium dissociation constant (Kd) of 12.6 µM.

For VTGYRLFEQES (modifications not checked) [array2.24], the Bmax was 1830 and the Kd was found to be 7.83 µM.

Molecule VEGYRLFEKEL (modifications not checked) [array2.102] had a Bmax of 962 and a Kd of 5.79 µM.

As for VTGYRLFKEAL (modifications not checked) [array2.35], the Bmax was 5550 and the dissociation constant (Kd) was 5.15 µM.

The molecule VTGYRLFQQIS (modifications not checked) [array2.13] had a Bmax of 19400 and a Kd of 0.876 µM.

VEGYRLFEKIL (modifications not checked) [array2.100]: the Bmax is 35000 and the equilibrium dissociation constant (Kd) stood at 10.6 µM.

In turn, VTGYRLFEKAS (modifications not checked) [array2.20] registered a Bmax of 36300 and a Kd of 1.79 µM.

VTGYRLFQKIS (modifications not checked) [array2.10] returned a Bmax of 113000 and a dissociation constant Kd of 0.0812 µM.

With VTGYRLFQKIL (modifications not checked) [array2.37], the Bmax came to 127000 and the equilibrium dissociation constant (Kd) came to 0.362 µM.

VTGYRLFKQEL (modifications not checked) [array2.33]: the Bmax came to 8550 and the Kd worked out at 1.95 µM.

Consider VTGYRLFQKAL (modifications not checked) [array2.38], for which the Bmax was 72800 and the dissociation constant Kd turned out to be 0.975 µM.

In turn, VTGYRLFKEIL (modifications not checked) [array2.34] had a Bmax of 21900 and a dissociation constant Kd of 4.41 µM.

Take VTGYRLFKKES (modifications not checked) [array2.3]: the Bmax stood at 56000 and the Kd turned out to be 0.773 µM.

Regarding VTGYRLFKKAL (modifications not checked) [array2.29], the Bmax amounted to 98600 and the Kd was 0.276 µM.

The molecule VTGYRLFKEES (modifications not checked) [array2.9] gave a Bmax of 1450 and a dissociation constant (Kd) of 3.86 µM.

For VTGYRLFEQEL (modifications not checked) [array2.51], the Bmax stood at 46200 and the dissociation constant (Kd) amounted to 85 µM.

VTGYRLFQEIS (modifications not checked) [array2.16] gave a Bmax of 1320 and an equilibrium dissociation constant (Kd) of 2.56 µM.

VEGYRLFQQIL (modifications not checked) [array2.94] showed a Bmax of 2280 and a dissociation constant Kd of 9.39 µM.

Regarding VTGYRLFEKAL (modifications not checked) [array2.47], the Bmax was determined as 34500 and the dissociation constant (Kd) was found to be 1.81 µM.

VTGYRLFQKEL (modifications not checked) [array2.39] returned a Bmax of 33100 and a Kd of 2.48 µM.

VTGYRLFKQAL (modifications not checked) [array2.32] returned a Bmax of 34900 and a dissociation constant Kd of 3.56 µM.

Molecule VTGYRLFEEEL (modifications not checked) [array2.54] showed a Bmax of 251000 and a Kd of 68.3 µM.

With VTGYRLFEQIL (modifications not checked) [array2.49], the Bmax amounted to 99200 and the dissociation constant (Kd) was determined as 124 µM.

For the molecule VTGYRLFQQES (modifications not checked) [array2.15], the Bmax was 5200 and the Kd amounted to 7.49 µM.

VEGYRLFQQAL (modifications not checked) [array2.95]: the Bmax was determined as 38200 and the dissociation constant Kd was found to be 18.8 µM.

VTGYRLFEKES (modifications not checked) [array2.21] displayed a Bmax of 8620 and a Kd of 1.49 µM.

With VTGYRLFQEAL (modifications not checked) [array2.44], the Bmax is 4230 and the Kd came out at 16 µM.

The molecule VTGYRLFKEEL (modifications not checked) [array2.36] came in with a Bmax of 1720 and an equilibrium dissociation constant (Kd) of 7.79 µM.

For the molecule VTGYRLFEKIS (modifications not checked) [array2.19], the Bmax came out at 123000 and the dissociation constant (Kd) was 0.605 µM.

On to VEGYRLFQQEL (modifications not checked) [array2.96], for which the Bmax came to 105000 and the Kd amounted to 99.4 µM.

The molecule VTGYRLFQQAS (modifications not checked) [array2.14] returned a Bmax of 4350 and a Kd of 1.11 µM.

Take VTGYRLFEQIS (modifications not checked) [array2.22]: the Bmax was determined as 121000 and the Kd is 10.8 µM.

Turning to VTGYRLFKKEL (modifications not checked) [array2.30], the Bmax turned out to be 51100 and the Kd is 0.671 µM.

For the molecule VTGYRLFEQAS (modifications not checked) [array2.23], the Bmax amounted to 3820 and the Kd stood at 4.17 µM.

In the case of VTGYRLFQQIL (modifications not checked) [array2.40], the Bmax stood at 66300 and the Kd worked out at 122 µM.

On to VEGYRLFQEAL (modifications not checked) [array2.98], for which the Bmax was 2700 and the Kd was found to be 99.9 µM.

Regarding VTGYRLFKQIL (modifications not checked) [array2.31], the Bmax came to 115000 and the dissociation constant (Kd) was 2.99 µM.

On to VTGYRLFQKAS (modifications not checked) [array2.11], for which the Bmax came to 80900 and the Kd is 0.749 µM.

Turning to VTGYRLFQEEL (modifications not checked) [array2.45], the Bmax came to 14300 and the equilibrium dissociation constant (Kd) turned out to be 35.4 µM.

VTGYRLFQEES (modifications not checked) [array2.18] yielded a Bmax of 5110 and a Kd of 67.3 µM.

Turning to VTGYRLFEKEL (modifications not checked) [array2.48], the Bmax came to 10900 and the Kd was determined as 2.44 µM.

Regarding VTGYRLFKKAS (modifications not checked) [array2.2], the Bmax amounted to 104000 and the dissociation constant (Kd) turned out to be 0.241 µM.

The next assay has as its target T1, NLpoly11S. Description: luminescence complementation titration, one-site specific binding. The settings on record: chains peptide; modification not given.
Turning to VTGYRLFEKES [NLpep101], the Kd worked out at 3.12 µM.

VTGYRLFEKIS [NLpep99] showed a dissociation constant Kd of 0.267 µM.

For VTGYRLFEKIL [NLpep128], the Kd was 0.237 µM.

Turning to VEGYRLFEKIS [NLpep104], the dissociation constant (Kd) worked out at 1.75 µM. This Kd lies about 7.4-fold higher than the previous one.
